Experimental data: patent publication US20240209100A1 (DIAGONAL THERAPEUTICS, published 2024)

B1: DGL312 (bispecific antibody, V domains shown)
V domain 1: QVQLVESGGGLVQAGGSLRLSCAASGRTFSSYDMGWFRQAPGKEREFVAALRWSGGSTSYADSVKGRFTISRDNAKNTVYLHMNSLKPEDTAVYYCAATLETDSGTYWADYWGQGTQVTVSS
V domain 2: QVQLVESGGGLVQAGGSLRLSCAASGMFFSIGEMGWYRQAPGKQREMVARITRDGRINYADSVEGRFTASRNVAKTTLFLQMNSLKPEDTANYQCTVRRWDEEYWGKGTLVTVSD
B2: DGL318 (bispecific antibody, V domains shown)
V domain 1: QVQLVESGGGLVQAGGSLRLSCAASGRTFSSYDMGWFRQAPGKEREFVAALRWSGGSTSYADSVKGRFTISRDNAKNTVYLHMNSLKPEDTAVYYCAATLETDSGTYWADYWGQGTQVTVSS
V domain 2: QLQLVESGGGLVQAGGSLRLSCAASRSITFSHNVMGWYRQAPGKQRELVASIGSGGSTNYVDSVKGRATISRDNAKKTVYLQMNSLKPEDTAVYYCGVVVGVYRGSLGQGTQVTVSS
B3: DGL314 (bispecific antibody, V domains shown)
V domain 1: QVQLQESGGGLVQPGGSLRLSCAASGSIFSTKGLGWYRQAPGEQRELVAGISSAGWIFYTQSVKGRFTMSRDNAKNTVYLQMNSLKPEDTAVYYCNSAQSGVPLRSWGQGTQVTVAS
V domain 2: QVQLVESGGGLVQAGGSLRLSCAASGMFFSIGEMGWYRQAPGKQREMVARITRDGRINYADSVEGRFTASRNVAKTTLFLQMNSLKPEDTANYQCTVRRWDEEYWGKGTLVTVSD
B4: DGL316 (bispecific antibody, V domains shown)
V domain 1: QVQLVESGGGLVQAGGSLRLSCAASGRTFSKHAMGWFRQAPGKEREFVAAIDWSGGSTYYADSVKGRFTISRDNAKNTVYLQMDSLKPEDTAVYYCAADSYTDYAQLWLPELESEYDYWGQGTQVTVSS
V domain 2: QVQLVESGGGLVQAGGSLRLSCAASGMFFSIGEMGWYRQAPGKQREMVARITRDGRINYADSVEGRFTASRNVAKTTLFLQMNSLKPEDTANYQCTVRRWDEEYWGKGTLVTVSD
B5: DGL313 (bispecific antibody, V domains shown)
V domain 1: EVQLVESGGGLVQPGGSLRLSCAASGSIFSINAMGWYRQAPGKQREVVATSTGGGMTNYADSVKGRFTISRDNAKNTVYLQMNSLKPEDTAVYYCNADKDPFFPGDYWGQGTQVTVSS
V domain 2: QVQLVESGGGLVQAGGSLRLSCAASGMFFSIGEMGWYRQAPGKQREMVARITRDGRINYADSVEGRFTASRNVAKTTLFLQMNSLKPEDTANYQCTVRRWDEEYWGKGTLVTVSD
B6: DGL317 (bispecific antibody, V domains shown)
V domain 1: QVQLQESGGGLVQPGGSLRLSCAASGFIFSNWYMRWVRQAPGEGLEWVSSINSGGDDTDYADSVKGRFTISRDNAKGTLYLQMHSLKPEDTALYYCERGADRVRGQGTQVTVSS
V domain 2: QVQLVESGGGLVQAGGSLRLSCAASGMFFSIGEMGWYRQAPGKQREMVARITRDGRINYADSVEGRFTASRNVAKTTLFLQMNSLKPEDTANYQCTVRRWDEEYWGKGTLVTVSD
B7: DGL315 (bispecific antibody, V domains shown)
V domain 1: QVQLQESGGGLVQPGGSARLSCVASGIIFNDYHMGWYRQAPGKQRDLVAGITAGGSTTYADSVKGRFTISRDNAKHTVYLQMNNLSPEDTAVYYCNTFYNAILDWGKGTLVTVSS
V domain 2: QVQLVESGGGLVQAGGSLRLSCAASGMFFSIGEMGWYRQAPGKQREMVARITRDGRINYADSVEGRFTASRNVAKTTLFLQMNSLKPEDTANYQCTVRRWDEEYWGKGTLVTVSD
B8: DGL319 (bispecific antibody, V domains shown)
V domain 1: EVQLVESGGGLVQPGGSLRLSCAASGSIFSINAMGWYRQAPGKQREVVATSTGGGMTNYADSVKGRFTISRDNAKNTVYLQMNSLKPEDTAVYYCNADKDPFFPGDYWGQGTQVTVSS
V domain 2: QLQLVESGGGLVQAGGSLRLSCAASRSITFSHNVMGWYRQAPGKQRELVASIGSGGSTNYVDSVKGRATISRDNAKKTVYLQMNSLKPEDTAVYYCGVVVGVYRGSLGQGTQVTVSS

target: T1, IL-18 receptor (IL-18Rα/IL-18Rβ) overexpressed on HEK-Blue IL-18 cells (Homo sapiens (Human), UniProt Q13478 19-541; O95256 20-599); assay: cell-based or functional assay
T1 sequence 1: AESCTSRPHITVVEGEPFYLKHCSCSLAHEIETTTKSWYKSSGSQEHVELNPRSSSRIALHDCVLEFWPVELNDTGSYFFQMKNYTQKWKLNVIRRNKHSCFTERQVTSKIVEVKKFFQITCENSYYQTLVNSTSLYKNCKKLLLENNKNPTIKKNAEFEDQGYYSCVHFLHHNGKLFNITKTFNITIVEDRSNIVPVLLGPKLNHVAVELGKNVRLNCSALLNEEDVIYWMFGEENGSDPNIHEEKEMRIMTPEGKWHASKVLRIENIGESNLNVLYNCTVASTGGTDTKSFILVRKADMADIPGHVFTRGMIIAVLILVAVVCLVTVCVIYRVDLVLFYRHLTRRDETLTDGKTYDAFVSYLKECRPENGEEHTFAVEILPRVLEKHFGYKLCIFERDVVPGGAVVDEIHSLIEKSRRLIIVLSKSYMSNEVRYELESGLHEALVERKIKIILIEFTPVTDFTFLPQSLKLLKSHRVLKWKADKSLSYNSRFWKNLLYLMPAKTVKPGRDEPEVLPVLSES
T1 sequence 2: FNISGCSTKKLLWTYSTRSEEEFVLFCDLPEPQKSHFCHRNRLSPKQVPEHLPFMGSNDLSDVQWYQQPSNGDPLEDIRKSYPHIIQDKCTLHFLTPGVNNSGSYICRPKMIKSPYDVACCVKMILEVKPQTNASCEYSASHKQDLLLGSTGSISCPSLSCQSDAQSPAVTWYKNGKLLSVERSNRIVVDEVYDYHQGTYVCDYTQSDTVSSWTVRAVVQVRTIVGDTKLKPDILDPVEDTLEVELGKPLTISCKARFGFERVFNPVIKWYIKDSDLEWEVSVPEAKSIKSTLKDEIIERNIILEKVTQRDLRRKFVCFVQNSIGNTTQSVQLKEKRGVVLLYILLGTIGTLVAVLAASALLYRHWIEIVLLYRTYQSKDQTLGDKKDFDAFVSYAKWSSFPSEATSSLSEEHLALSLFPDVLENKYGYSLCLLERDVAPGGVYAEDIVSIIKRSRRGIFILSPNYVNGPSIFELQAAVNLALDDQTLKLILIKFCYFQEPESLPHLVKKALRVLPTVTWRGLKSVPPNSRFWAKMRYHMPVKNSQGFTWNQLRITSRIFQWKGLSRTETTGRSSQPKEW

Going from B1 to B2, the “HEK-Blue IL-18: Abs 405” value rises from 0.63 Abs to 2.23 Abs.

Compared with B3, B4 is lower in “HEK-Blue IL-18: Abs 405” value: 0.83 Abs for the first, 0.58 Abs for the second.

Going from B5 to B6, the “HEK-Blue IL-18: Abs 405” value rises from 0.62 Abs to 0.99 Abs.

Compared with B7, B8 is higher in “HEK-Blue IL-18: Abs 405” value: 0.58 Abs for the first, 2.88 Abs for the second.

First: B1
Second: B2
The “HEK-Blue IL-18: Fold over Background” value of the first is lower: 2.7 fold for the first, 9.7 fold for the second.

First: B3
Second: B4
The “HEK-Blue IL-18: Fold over Background” value of the first is higher: 3.6 fold for the first, 2.5 fold for the second.

First: B5
Second: B6
The “HEK-Blue IL-18: Fold over Background” value of the first is lower: 2.7 fold for the first, 4.3 fold for the second.

Compared with B7, B8 is higher in “HEK-Blue IL-18: Fold over Background” value: 2.5 fold for the first, 12.5 fold for the second.
